Results: patent publication EP4541891A1, “NOVEL LRP1-BINDING PEPTIDE” (Ichimaru Pharcos Co., Ltd., priority 2022, dated 2025)
Bridge positions count the residues as written; N and C are the ends. Square brackets hold non-standard residues; d marks the D form. Ends that are not written are not given here. Peptide text beside a SMILES is read from it. * marks the point of attachment. 5FAM = O=C1OC2(c3ccc(O)cc3Oc3cc(O)ccc32)c2ccc(C(=O)*)cc21; Biotin = O=C1N[C@H]2[C@H](CS[C@H]2CCCCC(=O)*)N1; Hyp = O=C(O)[C@@H]1C[C@@H](O)CN1; Nle = CCCC[C@H](N)C(=O)O; Aib = CC(C)(N)C(=O)O

Each molecule was assayed on LRP1 cluster 4-Fc chimeric proteins (assay: Competitive binding assay by ELISA against Sequence 46). Conditions: peptide 2,000 nM versus Sequence 46 (500 nM); time point not stated.
Method: For comparison between the peptide of Sequence 1 with amino acid substitutions and the peptide of Sequence 2 in terms of the LRP1 binding activity and the resistance to protease degradation, a competitive binding assay by ELISA shown in FIG. 2 was constructed. Immediately (zero hour) or 24 hours after the mixing of the peptide of Sequence 2 or the amino acid-substituted peptide with mouse plasma at 37°C, the mixture was diluted to sufficiently lower the plasma concentration to any desired final concentration, and mixed with Sequence 46 (500 nM). This mixture was subjected to the competitive binding assay described above. The binding of Sequence 46 to the LRP1 cluster 4-Fc chimera proteins competes with the binding of Sequence 2 or the amino acid-substituted peptide to the LRP1 cluster 4-Fc chimera proteins, and thus is inhibited depending on the concentration of Sequence 2 or the amino acid-substituted peptide. That is, the binding activity of Sequence 2 or the amino acid-substituted peptide to the LRP1 cluster 4-Fc chimera proteins is detected as competitive inhibitory activity against the binding of Sequence 46. Regarding the binding value of Sequence 46 to the wells in which the LRP1 cluster 4-Fc chimeric proteins were not captured as 100% inhibitory activity and the binding value of Sequence 46 to the wells in which Sequence 2 or the amino acid-substituted peptide was not added as 0% inhibitory activity, the inhibitory activity values of Sequence 2 and the amino acid-substituted peptide were calculated in %.
Sequence 2 incubated with plasma for zero hour inhibited the binding of Sequence 46 in a concentration-dependent manner. […] However, the binding of Sequence 46 (500 nM) in wells loaded with 2,000 nM equivalent Sequence 2 averaged 50.6%.
Immediately or 24 hours after Sequences 1 to 44 were mixed with mouse plasma at 37°C, the mixtures were diluted to sufficiently lower the plasma concentration to a final concentration of 2,000 nM, and mixed with Sequence 46 (500 nM). The obtained mixtures were subjected to the above-described competitive binding assay. […] Other sequences tended to have diminished inhibitory activities.

inhibitory activity | Molecule
91.9% | CCCC[C@@H]1NC(=O)[C@H](CCC(=O)O)NC(=O)[C@H](C)NC(=O)[C@H](CC(C)C)NC(=O)[C@H](CCCC)NC(=O)[C@H](Cc2ccc(O)cc2)NC(=O)[C@H](CCCCN)NC(=O)[C@H](Cc2ccc(O)cc2)NC(=O)[C@H]([C@@H](C)O)NC(=O)[C@H](NC(=O)[C@@H]2CCCN2C(=O)[C@@H](NC(=O)CNC(=O)[C@H](CCCCNC(=O)c2ccc3c(c2)C(=O)OC32c3ccc(O)cc3Oc3cc(O)ccc32)NC(C)=O)[C@@H](C)O)CSSC[C@@H](C(=O)O)NC1=O [Sequence 6, Ac-Lys(5FAM)-Gly-Thr-Pro-c(^DCys-Thr-Tyr-Lys-Tyr-Nle-Leu-Ala-Glu-Nle-Cys)-OH] (Ac-K(5FAM)GTP[dC]TYKY[Nle]LAE[Nle]C-OH; disulfide 5-15)
77.4% | CCCC[C@@H]1NC(=O)[C@H](CCC(=O)O)NC(=O)[C@H](C)NC(=O)[C@H](CC(C)C)NC(=O)[C@H](CCCC)NC(=O)[C@H](Cc2ccc(O)cc2)NC(=O)[C@H](CCCNC(=N)N)NC(=O)[C@H](Cc2ccc(O)cc2)NC(=O)[C@H]([C@@H](C)O)NC(=O)[C@@H](NC(=O)[C@@H]2CCCN2C(=O)[C@@H](NC(=O)CNC(=O)[C@H](CCCCNC(=O)c2ccc3c(c2)C(=O)OC32c3ccc(O)cc3Oc3cc(O)ccc32)NC(C)=O)[C@@H](C)O)CSSC[C@@H](C(=O)O)NC1=O [Sequence 24, Ac-Lys(5FAM)-Gly-Thr-Pro-c(Cys-Thr-Tyr-Arg-Tyr-Nle-Leu-Ala-Glu-Nle-Cys)-OH] (Ac-K(5FAM)GTPCTYRY[Nle]LAE[Nle]C-OH; disulfide 5-15)
82.0% | CCCC[C@@H]1NC(=O)[C@H](CCC(=O)O)NC(=O)C(C)(C)NC(=O)[C@H](CC(C)C)NC(=O)[C@H](CCCC)NC(=O)[C@H](Cc2ccc(O)cc2)NC(=O)[C@H](CCCCN)NC(=O)[C@H](Cc2ccc(O)cc2)NC(=O)[C@H]([C@@H](C)O)NC(=O)[C@@H](NC(=O)[C@@H]2CCCN2C(=O)[C@@H](NC(=O)CNC(=O)[C@H](CCCCNC(=O)c2ccc3c(c2)C(=O)OC32c3ccc(O)cc3Oc3cc(O)ccc32)NC(C)=O)[C@@H](C)O)CSSC[C@@H](C(=O)O)NC1=O [Sequence 34, Ac-Lys(5FAM)-Gly-Thr-Pro-c(Cys-Thr-Tyr-Lys-Tyr-Nle-Leu-Aib-Glu-Nle-Cys)-OH] (Ac-K(5FAM)GTPCTYKY[Nle]L[Aib]E[Nle]C-OH; disulfide 5-15)
83.5% | CCCC[C@@H]1NC(=O)[C@H](Cc2ccc(O)cc2)NC(=O)[C@H](CCCCN)NC(=O)[C@H](Cc2ccc(O)cc2)NC(=O)[C@H]([C@@H](C)O)NC(=O)[C@@H](NC(=O)[C@@H]2CCCN2C(=O)[C@@H](NC(=O)CNC(=O)[C@H](CCCCNC(=O)c2ccc3c(c2)C(=O)OC32c3ccc(O)cc3Oc3cc(O)ccc32)NC(C)=O)[C@@H](C)O)CSSC[C@@H](C(=O)O)NC(=O)[C@@H]2CCCN2C(=O)[C@H](CCCC)NC(=O)[C@H](CCC(=O)O)NC(=O)[C@H](C)NC(=O)[C@H](CC(C)C)NC1=O [Sequence 43, Ac-Lys(5FAM)-Gly-Thr-Pro-c(Cys-Thr-Tyr-Lys-Tyr-Nle-Leu-Ala-Glu-Nle-Pro-Cys)-OH] (Ac-K(5FAM)GTPCTYKY[Nle]LAE[Nle]PC-OH; disulfide 5-16)
70.7% | Ac-Lys(5FAM)-Gly-Thr-Pro-Cys-Thr-Tyr-Lys-Tyr-Nle-Leu-Ala-Glu-Nle-Cys)-OH (Ac-K(5FAM)GTPCTYKY[Nle]LAE[Nle]C-OH; not fully specified (bridges); printed as Ac-Lys(5FAM)-Gly-Thr-Pro-Cys-Thr-Tyr-Lys-Tyr-Nle-Leu-Ala-Glu-Nle-Cys)-OH; also: cyclic, bridge type not given here) [Sequence 1]
85.8% | Ac-Lys(5FAM)-Gly-Thr-Pro-Cys-Thr-Tyr-Lys-Tyr-Nle-Leu-Ala-Glu-Nle-^DCys-OH (Ac-K(5FAM)GTPCTYKY[Nle]LAE[Nle][dC]-OH; cysteine pairing not given here) [Sequence 9]
87.6% | Ac-Lys(5FAM)-Gly-Thr-Pro-c(^DCys-Thr-Tyr-Lys-Tyr-Nle-Leu-Ala-Glu-Nle-Cys)-OH (KGTPCTYKYXLAEXC; N-acetyl, Lys(5FAM), cyclic, D-residue, Nle residues; CROSSLNK 5..15: note = methylene thioactal (-S-CH2-S-); SITE 5: note = D-Cys; SITE 10: note = Nle; SITE 14: note = Nle; MOD_RES 1: note = N-acetyllysine labeled with 5-FAM) [Sequence 7]

What follows are molecules tested against LRP1 cluster 4-Fc chimeric proteins (UniProt Q07954) (assay: ELISA, LRP1 cluster 4-Fc captured, biotin peptide detected with SA-HRP). Conditions: not given.
Chain of UniProt Q07954 (Q07954 3293-3783, stated change not applied): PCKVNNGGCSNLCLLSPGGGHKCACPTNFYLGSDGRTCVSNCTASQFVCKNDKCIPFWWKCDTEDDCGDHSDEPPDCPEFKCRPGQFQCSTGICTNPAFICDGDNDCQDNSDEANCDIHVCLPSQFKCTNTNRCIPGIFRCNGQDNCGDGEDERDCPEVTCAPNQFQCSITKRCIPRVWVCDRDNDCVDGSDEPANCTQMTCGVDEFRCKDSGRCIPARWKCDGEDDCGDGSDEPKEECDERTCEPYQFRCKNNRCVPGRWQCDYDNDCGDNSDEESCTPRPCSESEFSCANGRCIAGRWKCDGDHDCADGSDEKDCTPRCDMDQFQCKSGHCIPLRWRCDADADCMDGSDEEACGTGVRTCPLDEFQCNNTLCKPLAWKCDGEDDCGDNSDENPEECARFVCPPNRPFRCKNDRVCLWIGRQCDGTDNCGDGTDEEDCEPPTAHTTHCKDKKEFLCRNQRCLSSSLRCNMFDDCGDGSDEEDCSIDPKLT

EC50 | Molecule
11 nM | Ac-K(Biotin)GTPCTYKY[Nle]LAE[Nle]C (disulfide 5-15) [SEQUENCE 46]
10.5 nM | Ac-K(Biotin)GTPCTYKY[Nle]LAE[Nle]C (cysteine pairing not given here) [SEQUENCE 45]

Each molecule was assayed against LRP1 cluster 4-Fc chimeric proteins (UniProt Q07954) (assay: competitive ELISA, LRP1 cluster 4-Fc captured; peptide 2,000 nM against biotin-Sequence 46 500 nM). Conditions: not given.

inhibitory activity (%) | Molecule
87.6% | Ac-K(5FAM)GTP[dC]TYKY[Nle]LAE[Nle]C (bridge 5-15 via S‑C‑S (methylene)) [SEQUENCE 7]
91.9% | Ac-K(5FAM)GTP[dC]TYKY[Nle]LAE[Nle]C (disulfide 5-15) [SEQUENCE 6]
83.5% | Ac-K(5FAM)GTPCTYKY[Nle]LAE[Nle]PC (disulfide 5-16) [SEQUENCE 43]
85.8% | Ac-K(5FAM)GTPCTYKY[Nle]LAE[Nle][dC] (cysteine pairing not given here) [SEQUENCE 9]
70.7% | Ac-K(5FAM)GTPCTYKY[Nle]LAE[Nle]C (cysteine pairing not given here) [SEQUENCE 1]
82% | Ac-K(5FAM)GTPCTYKY[Nle]L[Aib]E[Nle]C (disulfide 5-15) [SEQUENCE 34]
79.1% | Ac-K(5FAM)GTPC[Hyp]YKY[Nle]LAE[Nle]C (disulfide 5-15) [SEQUENCE 19]
77.4% | Ac-K(5FAM)GTPCTYRY[Nle]LAE[Nle]C (disulfide 5-15) [SEQUENCE 24]
